First the molecules themselves.
B1: Hammerhead Ribozyme (parent)
chain: ACCGGAUGUGCUUUCCGGUCUGAUGAGUCCGUGAGGACGAAACAG

Variants of B1 are the subject of the data set. Kind of data set: self-cleavage, relative activity (ratio to wild type); higher = more cleavage; co-transcriptional.
Regarding ACCGGAUGUGCUUUCAGGUCUGAUGAGUCCGUGAGGACGAAACAU [C16A G45U], the self-cleavage was 0.563.
On to ACCGGAUGUGCUUUCCGGUCUGAUGAGUCCGUGAGGACGGAUCAG [A40G A42U], for which the self-cleavage was found to be 0.253.
Turning to ACCGGAUGAGCUUUCCGGUCUGAUGAGUCCGUGAGGACGGAACAG [U9A A40G], the self-cleavage amounted to 0.349.
Next, ACCGGAUCUGCUUUCCGGUCUGAUAAGUCCGUGAGGACGAAACAG [G8C G25A]: 0.284; ACCGGAUGUGCUUUCCGGUCUAAUGAGUACGUGAGGACGAAACAG [G22A C29A]: 0.342.
On to ACCGGAUGUGCUUUCCGGUUUGAUGAGUCCGUGAGAACGAAACAG [C20U G36A], for which the self-cleavage was 0.36.
On to ACCGGAUGUGCUUUCGGGUCUGAUGAGGCCGUGAGGACGAAACAG [C16G U28G], for which the self-cleavage is 0.592.
With ACCGGAUGUGCCUUCCGGUCUGAUGAGUCCCUGAGGACGAAACAG [U12C G31C] the figure was 0.913.
For ACCGGAUGUGCUUUCCGUUCUGAUGAGUCCGUGAGGACGAAACAU [G18U G45U], the self-cleavage turned out to be 0.475.
For the variant ACCGGAUGUGCUUUACGGUCUGAUGAGUCCGAGAGGACGAAACAG [C15A U32A], the self-cleavage worked out at 0.782.
With ACCGGAUGUGCUUACCGGUCUGAUGAGUCCGUGAGGACGAAACUG [U14A A44U] the figure was 0.417; with ACCGAAUGUGCUUUCCGGUCUGAUGAGUCCGUGAGGACAAAACAG [G5A G39A], 0.353.
As for ACCGGAUGCGCUUUCCGGUCUGAUGAGGCCGUGAGGACGAAACAG [U9C U28G], the self-cleavage came out at 0.808.
In the case of ACCCGAUGUGCUUUCCGGUCCGAUGAGUCCGUGAGGACGAAACAG [G4C U21C], the self-cleavage stood at 0.363.
As to ACCGGAUGUGCUUUCCGGUCUGAUGAGUCCGUGAGGACGAAAUAC [C43U G45C], the self-cleavage was determined as 0.451.
Consider ACCGGAUGUGCUUUCCGGUCUGCUGAGUCCGUGAGGAGGAAACAG [A23C C38G], for which the self-cleavage is 0.371.
For the variant ACCGGAUGUGUUUUCCUGUCUGAUGAGUCCGUGAGGACGAAACAG [C11U G17U], the self-cleavage was determined as 0.405.
AUCGGAUGUGCUUUCAGGUCUGAUGAGUCCGUGAGGACGAAACAG [C2U C16A]: the self-cleavage worked out at 0.367.
With ACCGGAUGUGCUUUCCGGUCUGAUGAGUCAGUGAGGACGAAAAAG [C30A C43A], the self-cleavage was 0.293.
On to ACCGGAUAUGCUUUCCGGUCUGAUGAGUCCGUGAGGACGACACAG [G8A A41C], for which the self-cleavage worked out at 0.353.
Next, ACCGGAUGUUCUUUCCGGUCUGAUGAAUCCGUGAGGACGAAACAG [G10U G27A]: 0.825; ACCGGAUGUGCUGUCCGGUCUGAUGAGUCCGUCAGGACGAAACAG [U13G G33C]: 1.06; ACCGGAUUUGCUUACCGGUCUGAUGAGUCCGUGAGGACGAAACAG [G8U U14A]: 1.15.
Turning to ACGGGAUGUGCUUUCCGGUCUGAUGCGUCCGUGAGGACGAAACAG [C3G A26C], the self-cleavage came to 0.268.
As to AUCGGAUGUGCUUUCCGGUCUUAUGAGUCCGUGAGGACGAAACAG [C2U G22U], the self-cleavage stood at 0.376.
For ACCGGAUGGGCUUUCCGGUCUGAUGAGUCCGUGAGGACGAAACAU [U9G G45U], the self-cleavage came out at 0.454.
With ACCGGAUGUGCUUUCCGGACUGAUGAGUCCUUGAGGACGAAACAG [U19A G31U] the figure was 0.402.
With ACCGGAGGUGCUUUCCGGUCUGAUGAGUCCGUGAGGACGACACAG [U7G A41C], the self-cleavage came out at 0.422.
With ACCGGAUGUCCUUUCCGGUCUGAUGAGUUCGUGAGGACGAAACAG [G10C C29U] the figure was 1.44.
For ACCGGAUGUGCUUUCCGGUCUGAGGAGUCCGUGAGGACGAAAAAG [U24G C43A], the self-cleavage came out at 0.402.
With ACCGGAUGUGUUUUCCGGUCUGAUGAGUCCGUGAGGACGAAACAC [C11U G45C], the self-cleavage came to 0.44.
ACCGGAUGUGCUUUACGGUCUGAUGAGUCCGUGAGAACGAAACAG [C15A G36A]: the self-cleavage amounted to 0.407.
With ACCGGAUGUGCUUUCCGGUCUGAUGACUCCGUGAAGACGAAACAG [G27C G35A] the figure was 0.443; with ACCGGAUGUGCUUUCCGGUCUGAUGAGUCAGUGAGUACGAAACAG [C30A G36U], 0.639.
Regarding ACCGGAUGUGCUUUCCGGUCUGAUUAGUCCGUGAGGAGGAAACAG [G25U C38G], the self-cleavage turned out to be 0.382.
Regarding ACCGGAUGUGCUUCCCGGUCGGAUGAGUCCGUGAGGACGAAACAG [U14C U21G], the self-cleavage turned out to be 0.319.
With ACCGGAUGAGCUUUCCAGUCUGAUGAGUCCGUGAGGACGAAACAG [U9A G17A] the figure was 0.539; with ACCGGAUGUGCUCUCCGGUCUGAUGAGUCCGUGAGGACGAAACAA [U13C G45A], 0.878.
AGCGGAUGUGCAUUCCGGUCUGAUGAGUCCGUGAGGACGAAACAG [C2G U12A]: the self-cleavage is 0.335.
Take ACCGGAUGUGCUUUCCGGUCUGAUGAGUGCGUAAGGACGAAACAG [C29G G33A]: the self-cleavage is 0.788.
For the variant AGCGGAUGUGCUCUCCGGUCUGAUGAGUCCGUGAGGACGAAACAG [C2G U13C], the self-cleavage stood at 0.4.
For the variant ACCGGAUCUGCUUUCCGGUCUGAUGGGUCCGUGAGGACGAAACAG [G8C A26G], the self-cleavage came to 0.278.
Consider AGCGGAUGUGCUUUCCGGUCUGAUGAGUCCGUGAGGACGAGACAG [C2G A41G], for which the self-cleavage was determined as 0.369.
For the variant ACCGGAUGUGCUUUCCGGUCUGAUGAGUCCGUGAGGACGAGACCG [A41G A44C], the self-cleavage amounted to 0.391.
Next, ACCGGAUGUUCUUUCCGGUCUGAUGAGUCCCUGAGGACGAAACAG [G10U G31C]: 0.998; ACCGGAUGGGCUUCCCGGUCUGAUGAGUCCGUGAGGACGAAACAG [U9G U14C]: 0.41.
As for ACCAGAUGUGCUUUCCGGUCUGAUGAGUCCGUGAGGACGAAACAU [G4A G45U], the self-cleavage came to 0.418.
Turning to ACCGGAUGUGCUUUCCGGUCUGAUGAGUCCGUUCGGACGAAACAG [G33U A34C], the self-cleavage amounted to 0.895.
As to ACCGGAUGUGCUUUUCGGUCUGAUGAGUCCCUGAGGACGAAACAG [C15U G31C], the self-cleavage was found to be 0.967.
For UCCGGAUGCGCUUUCCGGUCUGAUGAGUCCGUGAGGACGAAACAG [A1U U9C], the self-cleavage worked out at 0.656.
Turning to ACCGGAAGUGCUUUCCGGUCUGAUGAGUCCUUGAGGACGAAACAG [U7A G31U], the self-cleavage turned out to be 1.26.
With ACCGGAUGUGCUUUACGGUCUGAUGAGUGCGUGAGGACGAAACAG [C15A C29G] the figure was 0.486.
For the variant ACCGGAUGUGCUGUCCGGUCUGAUGUGUCCGUGAGGACGAAACAG [U13G A26U], the self-cleavage worked out at 0.678.
Regarding ACCGGAUGUGGUUUUCGGUCUGAUGAGUCCGUGAGGACGAAACAG [C11G C15U], the self-cleavage is 0.986.
Next, ACCGGAUGUGCUUGCCGGUCUGAUGAGUCGGUGAGGACGAAACAG [U14G C30G]: 0.721; ACAGUAUGUGCUUUCCGGUCUGAUGAGUCCGUGAGGACGAAACAG [C3A G5U]: 0.28; ACCGGACGUGCUAUCCGGUCUGAUGAGUCCGUGAGGACGAAACAG [U7C U13A]: 1.22.
